Measured values from publication PMC4877171 (Chemical research in toxicology, 2015).

Experiments:
Assay in all cases: cross-linking
[1] = target: Human recombinant TrxR1 mutant enzyme (Sec498Cys) (human) (UniProt Q16881)
[2] = target: T1, purified rat cytosolic TrxR (rat, UniProt O89049 1-499, selenocysteine at 498)
T1 sequence (looked up): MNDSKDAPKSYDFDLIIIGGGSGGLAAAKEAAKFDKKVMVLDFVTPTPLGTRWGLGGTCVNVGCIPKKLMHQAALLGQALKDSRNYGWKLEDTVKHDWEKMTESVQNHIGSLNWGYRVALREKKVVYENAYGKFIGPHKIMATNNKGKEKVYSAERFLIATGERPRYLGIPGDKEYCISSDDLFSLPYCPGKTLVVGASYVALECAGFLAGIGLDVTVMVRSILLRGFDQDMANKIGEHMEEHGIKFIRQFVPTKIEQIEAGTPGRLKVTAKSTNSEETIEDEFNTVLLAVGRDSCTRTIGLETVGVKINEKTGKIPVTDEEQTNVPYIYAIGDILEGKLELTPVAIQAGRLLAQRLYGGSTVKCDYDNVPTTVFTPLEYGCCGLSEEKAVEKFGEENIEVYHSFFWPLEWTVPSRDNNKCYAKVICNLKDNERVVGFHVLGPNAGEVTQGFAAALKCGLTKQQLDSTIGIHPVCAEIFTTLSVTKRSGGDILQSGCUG

cross-linking = target: the molecule itself

Human recombinant TrxR1 mutant enzyme (Sec498Cys) (from UniProt Q16881-5 1-499)
stoichiometry N [1]: 2

B1: recombinant human Trx1 (natural protein)
chain: MVKQIESKTAFQEALDAAGDKLVVVDFSATWCGPCKMIKPFFHSLSEKYSNVIFLEVDVDDCQDVASECEVKCMPTFQFFKKGQKVGEFSGANKEKLEATINELV
binding result [2]: binds
stoichiometry N (cross-linking): 2
